B1: random DNA (dsDNA)
DNA 1: TGTTTCTGCCTCTGT
DNA 2: ACAGAGGCAGAAACA
B2: β-RAR DNA (dsDNA)
DNA 1: CACCGAAAGTTCACTC
DNA 2: GAGTGAACTTTCGGTG

Legend:
Test in all cases: fluorescence anisotropy
NZF-1-F2F3 = NZF-1-F2F3 (Rattus norvegicus, UniProt P70475 487-584)
CCHFC NZF-1-F2F3 = CCHFC NZF-1-F2F3 (Rattus norvegicus, UniProt P70475 487-584, H522A;H523F;H567F)
CCFHC NZF-1-F2F3 = CCFHC NZF-1-F2F3 (Rattus norvegicus, UniProt P70475 487-584, H515F;H559F)
MyT1-F2F3 = MyT1-F2F3 (Rattus norvegicus, UniProt D3ZYT5 425-521)

Sequence of NZF-1-F2F3 (P70475 487-584): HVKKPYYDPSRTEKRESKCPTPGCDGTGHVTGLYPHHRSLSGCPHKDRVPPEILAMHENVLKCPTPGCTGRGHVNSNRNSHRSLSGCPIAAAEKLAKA
Sequence of CCFHC NZF-1-F2F3 (P70475 487-584 H515F/H559F): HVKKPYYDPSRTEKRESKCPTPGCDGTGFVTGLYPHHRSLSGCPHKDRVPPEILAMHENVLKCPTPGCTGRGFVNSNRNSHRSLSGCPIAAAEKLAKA
Sequence of CCHFC NZF-1-F2F3 (P70475 487-584 H522A/H523F/H567F): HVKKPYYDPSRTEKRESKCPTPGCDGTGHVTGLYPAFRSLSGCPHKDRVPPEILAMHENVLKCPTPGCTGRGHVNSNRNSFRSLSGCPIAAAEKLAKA

Binder	binding result (NZF-1-F2F3)	binding result (CCHFC NZF-1-F2F3)	binding result (CCFHC NZF-1-F2F3)	Kd (MyT1-F2F3)	Kd (NZF-1-F2F3)
B1	no binding	no binding	no binding	910 nM	–
B2	–	no binding	no binding	1300 nM	14 nM

Reference: publication PMC3671583
